Measured values taken from article PMC7515732 (Nucleic Acids Research, 2020).
One block for each binder: values may come before it.

Key:
RXRA DBD;RARA DBD = RXRA DBD;RARA DBD (Homo sapiens;Homo sapiens, UniProt P19793;P10276 130-212;82-167, |); assay: X-ray crystallography
HsRARA DBD (82–167) = target: T1, HsRARA DBD (82–167) (human, UniProt P10276 82-167); assay: crystal structure
T1 sequence (looked up): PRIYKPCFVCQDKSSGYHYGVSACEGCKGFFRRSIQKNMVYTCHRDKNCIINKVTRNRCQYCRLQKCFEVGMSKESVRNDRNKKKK

RXRA ΔAB;RARA ΔAB [1] = target: T2, RXRA ΔAB;RARA ΔAB (Mus musculus;Mus musculus, UniProt P28700;P11416 135-467;84-462, |); assay: FRET titration
T2 sequence 1: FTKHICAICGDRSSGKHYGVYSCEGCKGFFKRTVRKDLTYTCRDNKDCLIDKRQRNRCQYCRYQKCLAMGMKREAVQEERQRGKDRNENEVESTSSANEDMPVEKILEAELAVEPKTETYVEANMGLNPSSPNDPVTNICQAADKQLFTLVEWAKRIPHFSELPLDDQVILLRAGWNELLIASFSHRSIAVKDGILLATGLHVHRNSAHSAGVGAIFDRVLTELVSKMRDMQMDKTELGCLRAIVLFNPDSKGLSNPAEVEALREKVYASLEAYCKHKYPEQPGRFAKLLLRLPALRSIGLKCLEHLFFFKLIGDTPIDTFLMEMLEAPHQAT
T2 sequence 2: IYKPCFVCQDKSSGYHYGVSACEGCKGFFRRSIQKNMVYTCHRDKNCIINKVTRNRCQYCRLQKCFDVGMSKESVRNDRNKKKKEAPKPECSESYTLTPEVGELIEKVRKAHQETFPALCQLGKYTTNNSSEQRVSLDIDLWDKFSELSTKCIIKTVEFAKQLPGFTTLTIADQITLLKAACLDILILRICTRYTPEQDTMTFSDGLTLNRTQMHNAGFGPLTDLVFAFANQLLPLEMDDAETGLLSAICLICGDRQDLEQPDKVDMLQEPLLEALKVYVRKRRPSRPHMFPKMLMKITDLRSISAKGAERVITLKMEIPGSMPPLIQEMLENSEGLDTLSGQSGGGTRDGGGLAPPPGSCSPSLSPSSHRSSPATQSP

RXRA ΔAB;RARA ΔABF = target: T3, RXRA ΔAB;RARA ΔABF (Mus musculus;Mus musculus, UniProt P28700;P11416 135-467;84-421, |); assay: SEC-SAXS/RALLS
T3 sequence 1: T2 sequence 1
T3 sequence 2: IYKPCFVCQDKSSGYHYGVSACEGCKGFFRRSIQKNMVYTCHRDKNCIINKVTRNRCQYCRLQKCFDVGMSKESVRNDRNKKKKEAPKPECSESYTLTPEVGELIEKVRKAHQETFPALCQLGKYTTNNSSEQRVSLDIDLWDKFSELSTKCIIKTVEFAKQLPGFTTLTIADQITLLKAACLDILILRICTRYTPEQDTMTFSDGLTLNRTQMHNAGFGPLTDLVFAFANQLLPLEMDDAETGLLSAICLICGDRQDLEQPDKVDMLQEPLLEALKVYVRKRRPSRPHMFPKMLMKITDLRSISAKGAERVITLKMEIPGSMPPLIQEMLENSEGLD

RXRA ΔAB;RARA ΔAB [2] = target: T2, RXRA ΔAB;RARA ΔAB; assay: HDX-MS
RXRA DBD = RXRA DBD (Homo sapiens, UniProt P19793 130-212); assay: X-ray crystallography

B1: Rarb2 DR5 (crystal) (dsDNA)
DNA 1: AGGGTTCACCGAAAGTTCACT
DNA 2: AGTGAACTTTCGGTGAACCCT
- binding result (RXRA DBD;RARA DBD): binds

- binding result (HsRARA DBD (82–167)): binds
B2: HsRXRA DBD (130–212) (domain or fragment, human, UniProt P19793 130-212, looked up)
chain: FTKHICAICGDRSSGKHYGVYSCEGCKGFFKRTVRKDLTYTCRDNKDCLIDKRQRNRCQYCRYQKCLAMGMKREAVQEERQRG

B3: Rarb2 DR5 TAMRA (dsDNA)
DNA 1: AGGGTTCACCGAAAGTTCACT
DNA 2: AGTGAACTTTCGGTGAACCCT
- Kd (RXRA ΔAB;RARA ΔAB [1]): 800 nM

B4: Hoxb13 DR0 unlabelled (SAXS, HDX) (dsDNA)
DNA 1: GAAGGTCAAGGCCAAG
DNA 2: CTTGGCCTTGACCTTC
- binding result (RXRA ΔAB;RARA ΔABF): binds
- binding result (RXRA ΔAB;RARA ΔAB [2]): binds

B5: Socs3 DR0 (dsDNA)
DNA 1: AGGGGTCAAGGTCAAA
DNA 2: TTTGACCTTGACCCCT
- Kd (RXRA ΔAB;RARA ΔAB [1]): 2700 nM

B6: Ramp2 DR1 (dsDNA)
DNA 1: TGAGTTCAAGGGTCAAT
DNA 2: ATTGACCCTTGAACTCA
- Kd (RXRA ΔAB;RARA ΔAB [1]): 500 nM

B7: F11r DR5 (dsDNA)
DNA 1: AGGGGTCAAGCCAGGTTCACT
DNA 2: AGTGAACCTGGCTTGACCCCT
- binding result (RXRA ΔAB;RARA ΔABF): binds

B8: Hoxb13 DR0 (crystal) (dsDNA)
DNA 1: GAAGGTCAAGGCCAAG
DNA 2: CTTGGCCTTGACCTTC
- binding result (RXRA DBD): binds
